The target in series [1] is T1, hDicer PPC cassette (Homo sapiens, UniProt Q9UPY3 753-1068).
T1 sequence: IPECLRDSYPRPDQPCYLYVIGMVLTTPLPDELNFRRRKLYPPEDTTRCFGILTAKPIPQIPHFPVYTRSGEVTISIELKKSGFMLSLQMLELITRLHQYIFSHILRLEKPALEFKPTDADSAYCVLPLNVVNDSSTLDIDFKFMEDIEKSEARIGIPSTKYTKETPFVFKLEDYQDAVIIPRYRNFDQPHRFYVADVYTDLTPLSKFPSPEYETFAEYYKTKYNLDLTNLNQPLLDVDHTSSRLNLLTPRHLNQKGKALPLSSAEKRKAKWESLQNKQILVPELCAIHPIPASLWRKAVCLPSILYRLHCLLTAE
Kind of series: EMSA; EMSA: 20 mM Tris-HCl pH 7.4, 100 mM KCl, 30 min on ice; 5% or 10% native PAGE at 4 C in 1x TBE; G-rich oligos folded in 50 mM KCl. The settings on record: protein: recombinant, tags: N-terminal 6xHis (pMCSG7), label: 5'-32P.

Series [2] has as its target T2, hDicer (Homo sapiens, UniProt Q9UPY3 1-1922). Kind of series: EMSA; 100, 250 nM hDicer; EMSA: 20 mM Tris-HCl pH 7.4, 100 mM KCl, 30 min on ice; 5% or 10% native PAGE at 4 C in 1x TBE; G-rich oligos folded in 50 mM KCl. The settings on record: protein: recombinant; label: 5'-32P; G4.
Series [3] concerns the target T2, hDicer. Description: EMSA; 250 nM hDicer; EMSA: 20 mM Tris-HCl pH 7.4, 100 mM KCl, 30 min on ice; 5% or 10% native PAGE at 4 C in 1x TBE; G-rich oligos folded in 50 mM KCl. The settings on record: protein: recombinant; label: 5'-32P; G4 dimer of bimolecular G-quadruplexes (PDB 2M18).

T2 sequence (Q9UPY3 whole entry): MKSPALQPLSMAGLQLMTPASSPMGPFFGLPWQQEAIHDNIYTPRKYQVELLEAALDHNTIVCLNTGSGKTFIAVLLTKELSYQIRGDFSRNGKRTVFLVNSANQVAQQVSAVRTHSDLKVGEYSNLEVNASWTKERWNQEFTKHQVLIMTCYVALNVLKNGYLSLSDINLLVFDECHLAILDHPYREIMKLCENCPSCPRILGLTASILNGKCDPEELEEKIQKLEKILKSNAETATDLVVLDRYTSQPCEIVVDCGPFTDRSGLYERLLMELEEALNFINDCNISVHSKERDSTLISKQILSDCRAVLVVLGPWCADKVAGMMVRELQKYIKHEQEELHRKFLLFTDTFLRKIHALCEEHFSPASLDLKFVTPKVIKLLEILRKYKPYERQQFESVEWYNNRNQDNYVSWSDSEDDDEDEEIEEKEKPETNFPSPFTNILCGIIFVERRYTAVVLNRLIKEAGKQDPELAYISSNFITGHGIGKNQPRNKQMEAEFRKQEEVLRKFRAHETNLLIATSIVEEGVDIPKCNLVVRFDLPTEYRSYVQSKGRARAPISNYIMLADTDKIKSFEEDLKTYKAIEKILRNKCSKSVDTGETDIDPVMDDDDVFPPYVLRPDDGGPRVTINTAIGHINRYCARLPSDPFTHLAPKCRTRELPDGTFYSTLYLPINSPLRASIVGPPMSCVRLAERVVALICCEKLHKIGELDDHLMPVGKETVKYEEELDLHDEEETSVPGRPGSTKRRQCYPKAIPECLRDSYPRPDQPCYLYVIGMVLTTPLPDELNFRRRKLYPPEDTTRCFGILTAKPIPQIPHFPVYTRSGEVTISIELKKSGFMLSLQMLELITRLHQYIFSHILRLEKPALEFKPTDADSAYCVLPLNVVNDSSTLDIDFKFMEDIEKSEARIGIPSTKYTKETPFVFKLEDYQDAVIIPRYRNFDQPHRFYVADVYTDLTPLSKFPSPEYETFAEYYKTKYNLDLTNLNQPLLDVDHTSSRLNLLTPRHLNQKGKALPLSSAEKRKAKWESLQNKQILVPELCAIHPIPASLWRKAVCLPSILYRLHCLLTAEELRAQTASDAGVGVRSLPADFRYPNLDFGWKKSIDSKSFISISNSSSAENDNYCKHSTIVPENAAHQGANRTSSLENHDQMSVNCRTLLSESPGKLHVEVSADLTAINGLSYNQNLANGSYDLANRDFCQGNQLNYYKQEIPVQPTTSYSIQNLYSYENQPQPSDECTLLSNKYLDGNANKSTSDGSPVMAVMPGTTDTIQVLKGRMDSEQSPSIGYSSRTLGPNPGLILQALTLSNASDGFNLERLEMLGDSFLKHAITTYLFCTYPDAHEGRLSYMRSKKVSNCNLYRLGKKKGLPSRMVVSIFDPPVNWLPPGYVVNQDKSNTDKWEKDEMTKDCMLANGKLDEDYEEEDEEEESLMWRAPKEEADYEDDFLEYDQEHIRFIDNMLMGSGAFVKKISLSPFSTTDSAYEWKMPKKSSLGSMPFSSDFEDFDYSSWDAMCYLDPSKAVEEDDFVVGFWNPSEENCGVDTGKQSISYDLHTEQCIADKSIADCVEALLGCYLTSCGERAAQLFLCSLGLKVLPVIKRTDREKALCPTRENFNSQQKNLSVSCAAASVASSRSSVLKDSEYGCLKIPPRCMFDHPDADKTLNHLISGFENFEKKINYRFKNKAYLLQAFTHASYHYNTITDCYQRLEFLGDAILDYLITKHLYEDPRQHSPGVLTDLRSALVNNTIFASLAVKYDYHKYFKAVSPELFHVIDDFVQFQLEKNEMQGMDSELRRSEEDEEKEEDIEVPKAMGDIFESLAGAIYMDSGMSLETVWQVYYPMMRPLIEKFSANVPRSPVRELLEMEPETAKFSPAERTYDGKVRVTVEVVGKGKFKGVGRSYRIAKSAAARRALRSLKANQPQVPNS

B1: pre-mir-21 (structured_RNA)
RNA: AGCUUAUCAGACUGAUGUUGACUGUUGAAUCUCAUGGCAACACCAGUCGAUGGGCUGU
For the molecule B1, the Kd in series [1] (hairpin) was roughly 205 nM.

B2: LIN21 (ssRNA)
RNA: UCGAAGUAUUCCGCGUACGUG
Take B2: in series [1], the Kd is roughly 46 nM.

B3: G4T4G4 (structured_DNA)
DNA: GGGGTTTTGGGG
As for B3, the Kd in series [1] (G4 bimolecular, 2 strand copies (PDB 1JPQ)) was roughly 369 nM.

B4: QU14 (structured_RNA)
RNA: GGAGGUUUUGGAGG
For the molecule B4, the binding result in series [2] is recorded as “binds”.

B5: G4U4G4 (structured_RNA)
RNA: GGGGUUUUGGGG
On to B5, for which the Kd in series [1] (G4) was roughly 10 nM.

B6: TER10 (structured_RNA)
RNA: GGGUUAGGGU
Consider B6, for which, in series [3], the binding result is given as “binds”.
